Experimental data from paper PMC4691241, “Activation of ULK Kinase and Autophagy by GABARAP Trafficking from the Centrosome Is Regulated by WAC and GM130” (Molecular Cell, 2015).

Experiments:
[1] = biological target: T1, Strep-Tag II-GM130, purified (human, UniProt Q08379 1-1002); test: pull-down; GST-WAC FL or ΔCC incubated with purified Strep-Tag II-GM130; GST-WAC monitored by Ponceau S; conditions: both partners purified
T1 construct: human GM130 isoform 1; also called Strep II-GM130; purified GM130; source: purified
T1 sequence (looked up): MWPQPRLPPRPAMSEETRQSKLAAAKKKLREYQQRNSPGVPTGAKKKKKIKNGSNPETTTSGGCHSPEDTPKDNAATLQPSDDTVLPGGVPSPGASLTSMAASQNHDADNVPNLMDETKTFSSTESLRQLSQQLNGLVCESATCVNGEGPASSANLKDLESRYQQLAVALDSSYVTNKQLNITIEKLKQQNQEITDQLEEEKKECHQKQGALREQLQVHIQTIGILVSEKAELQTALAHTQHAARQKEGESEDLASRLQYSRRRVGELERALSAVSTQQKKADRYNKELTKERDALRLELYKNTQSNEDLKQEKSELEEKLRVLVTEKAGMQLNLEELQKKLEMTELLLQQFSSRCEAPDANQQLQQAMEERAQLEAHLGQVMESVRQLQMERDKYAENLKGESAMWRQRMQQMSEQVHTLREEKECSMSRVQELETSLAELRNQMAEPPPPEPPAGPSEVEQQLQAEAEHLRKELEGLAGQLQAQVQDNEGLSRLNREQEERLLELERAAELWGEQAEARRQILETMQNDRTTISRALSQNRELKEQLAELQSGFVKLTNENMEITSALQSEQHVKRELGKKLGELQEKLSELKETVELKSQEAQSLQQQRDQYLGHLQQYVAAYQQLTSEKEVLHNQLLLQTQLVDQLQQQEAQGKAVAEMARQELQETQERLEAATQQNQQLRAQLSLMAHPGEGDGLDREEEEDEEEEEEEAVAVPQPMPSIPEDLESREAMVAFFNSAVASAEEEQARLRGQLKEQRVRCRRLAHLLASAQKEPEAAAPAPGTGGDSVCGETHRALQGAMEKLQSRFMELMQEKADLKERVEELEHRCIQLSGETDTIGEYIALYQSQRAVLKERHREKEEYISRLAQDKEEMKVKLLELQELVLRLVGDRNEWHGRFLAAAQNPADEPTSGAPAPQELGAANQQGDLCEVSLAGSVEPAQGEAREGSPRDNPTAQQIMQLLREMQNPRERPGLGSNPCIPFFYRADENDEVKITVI

[2] = biological target: T1, Strep-Tag II-GM130, purified; test: pull-down; purified Strep II-GM130 incubated with recombinant WAC 320–647 before binding to recombinant GST or GST-GABARAP beads, immunoblot; conditions: both partners purified

B1: GST-WAC FL (natural protein, human, UniProt Q9BTA9 1-647, looked up)
chain: MVMYARKQQRLSDGCHDRRGDSQPYQALKYSSKSHPSSGDHRHEKMRDAGDPSPPNKMLRRSDSPENKYSDSTGHSKAKNVHTHRVRERDGGTSYSPQENSHNHSALHSSNSHSSNPSNNPSKTSDAPYDSADDWSEHISSSGKKYYYNCRTEVSQWEKPKEWLEREQRQKEANKMAVNSFPKDRDYRREVMQATATSGFASGMEDKHSSDASSLLPQNILSQTSRHNDRDYRLPRAETHSSSTPVQHPIKPVVHPTATPSTVPSSPFTLQSDHQPKKSFDANGASTLSKLPTPTSSVPAQKTERKESTSGDKPVSHSCTTPSTSSASGLNPTSAPPTSASAVPVSPVPQSPIPPLLQDPNLLRQLLPALQATLQLNNSNVDISKINEVLTAAVTQASLQSIIHKFLTAGPSAFNITSLISQAAQLSTQAQPSNQSPMSLTSDASSPRSYVSPRISTPQTNTVPIKPLISTPPVSSQPKVSTPVVKQGPVSQSATQQPVTADKQQGHEPVSPRSLQRSSSQRSPSPGPNHTSNSSNASNATVVPQNSSARSTCSLTPALAAHFSENLIKHVQGWPADHAEKQASRLREEAHNMGTIHMSEICTELKNLRSLVRVCEIQATLREQRILFLRQQIKELEKLKNQNSFMV
notes: human WAC isoform 1, full length; also called recombinant GST-WAC; source: recombinant
B1: binds [1].

B2: recombinant WAC 320–647 (domain or fragment, human, UniProt Q9BTA9 320-647, looked up)
chain: TTPSTSSASGLNPTSAPPTSASAVPVSPVPQSPIPPLLQDPNLLRQLLPALQATLQLNNSNVDISKINEVLTAAVTQASLQSIIHKFLTAGPSAFNITSLISQAAQLSTQAQPSNQSPMSLTSDASSPRSYVSPRISTPQTNTVPIKPLISTPPVSSQPKVSTPVVKQGPVSQSATQQPVTADKQQGHEPVSPRSLQRSSSQRSPSPGPNHTSNSSNASNATVVPQNSSARSTCSLTPALAAHFSENLIKHVQGWPADHAEKQASRLREEAHNMGTIHMSEICTELKNLRSLVRVCEIQATLREQRILFLRQQIKELEKLKNQNSFMV
notes: human WAC isoform 1, residues 320-647 (the C-terminal half, CT); source: recombinant
B2: binds [2].
